Measured values from patent US20190275087A1, “EXPANSION AND DIFFERENTIATION OF STEM CELLS” (Allergan Pharmaceuticals International Limited, priority 2018, published 2019).

What was measured:
Assay type in all cases: cell-based, Human
MSCs [1] = test: MSC attachment to substrate-bound tropoelastin (EDTA inhibition, cation add-back); conditions: cation-free environment
Experimental: MSCs were seeded at a density of 1.5×10^5 cells/cm^2 on tropoelastin-coated wells in serum-free α-MEM containing 0-9 mM ethylenediaminetetraacetic acid (EDTA) (Sigma-Aldrich®). The cells were incubated for 1 hour at 37° C., then washed with PBS to remove unbound cells. Bound cells were fixed, stained and measured for absorbance at 570 nm as described for the proliferation assays. The percentage of cell attachment was determined relative to a set of standards with known cell numbers.
MSCs were washed with cation-free PBS, centrifuged at 270 g for 5 min, and resuspended in cation-free PBS. The cells were seeded at a density of 1.5×10^5 cells/cm^2 on tropoelastin-coated wells in the presence of 0-0.5 mM cation (Mg^2+, Ca^2+ or Mn^2+) and incubated for 45 min at 37° C. Bound cells were fixed and stained, and cell attachment was quantified as previously described.

MSCs [2] = test: Cell migration via chemotaxis (Boyden chamber); conditions: tropoelastin in solution, lower chamber
Experimental: Chemotaxis was measured using a fluorimetric 96-well Boyden chamber assay system (QCM Chemotaxis Cell Migration Assay, Millipore) according to the supplier's instructions. Normal, tropoelastin-supplemented, or growth factor-supplemented media was added to the lower chamber of the well plate, while MSCs were seeded at 14,300 cells/cm^2 in normal media into the upper chamber. Where indicated, integrin-blocking antibodies were added at optimized concentrations to the upper chamber with the cells. Cells that migrate through the permeable membrane into the lower chamber were detached and quantified. Normalized cell migration was calculated by subtracting the extent of undirected cell migration (where no chemoattractant was added to the lower chamber) from each experimental result.

MSCs [3] = test: MSC chondrogenic differentiation (glycosaminoglycans, Alcian Blue); conditions: for decreased MSC chondrogenesis: tropoelastin addition during differentiation
Experimental: (§1) MSCs were grown in various media formulations and on bare or protein-coated tissue culture wells for 7 days. The expanded cells were harvested, re-seeded on TCP, and differentiated into the adipogenic, osteogenic and chondrogenic lineages using the hMSC Adipogenic BulletKit®, hMSC Osteogenic BulletKit®, and hMSC Chondrogenic BulletKit® (Lonza), respectively, following the manufacturer's instructions.
To confirm chondrogenesis, cell pellets that had been induced for 14 days were washed with PBS, embedded in 1.5% (w/v) agar containing 0.85% (w/v) NaCl, and fixed with 10% (v/v) formalin overnight. The samples were dehydrated in 70% (v/v) ethanol for 1 day, then paraffin-embedded, sectioned, mounted onto slides, stained with Alcian Blue (pH 2.5) for 1 hour and counterstained with Nuclear Fast Red. Samples were imaged with an Olympus VS120 Slide Scanner.

MSCs [4] = test: Tri-lineage differentiation of MSCs expanded with tropoelastin; conditions: substrate-bound or soluble, replacing growth factors, normal or reduced serum media
Experimental: as §1
To confirm adipogenesis, cells that had been induced for 25 days were washed with PBS, fixed with 10% (v/v) formalin for 30 min, then washed with water. Cells were incubated with 60% (v/v) isopropanol for 5 min and stained for intracellular lipid droplets with 1.8 mg/mL Oil Red O in isopropanol for 20 min. Excess stain was removed with 5 washes of water.
To confirm osteogenesis, cells that had been induced for 14 days were fixed and stained for mineralized calcium deposits with Alizarin Red S, as previously described. Cells from the adipogenic and osteogenic experiments were imaged with a Zeiss Axio Vert.A1 microscope using an AxioCam 105 colour camera.
To confirm chondrogenesis, cell pellets that had been induced for 14 days were washed with PBS, embedded in 1.5% (w/v) agar containing 0.85% (w/v) NaCl, and fixed with 10% (v/v) formalin overnight. […]

B1: recombinant human tropoelastin (Elastagen) (ligand, UniProt P15502-2 27-724, looked up)
chain: GGVPGAIPGGVPGGVFYPGAGLGALGGGALGPGGKPLKPVPGGLAGAGLGAGLGAFPAVTFPGALVPGGVADAAAAYKAAKAGAGLGGVPGVGGLGVSAGAVVPQPGAGVKPGKVPGVGLPGVYPGGVLPGARFPGVGVLPGVPTGAGVKPKAPGVGGAFAGIPGVGPFGGPQPGVPLGYPIKAPKLPGGYGLPYTTGKLPYGYGPGGVAGAAGKAGYPTGTGVGPQAAAAAAAKAAAKFGAGAAGVLPGVGGAGVPGVPGAIPGIGGIAGVGTPAAAAAAAAAAKAAKYGAAAGLVPGGPGFGPGVVGVPGAGVPGVGVPGAGIPVVPGAGIPGAAVPGVVSPEAAAKAAAKAAKYGARPGVGVGGIPTYGVGAGGFPGFGVGVGGIPGVAGVPGVGGVPGVGGVPGVGISPEAQAAAAAKAAKYGVGTPAAAAAKAAAKAAQFGLVPGVGVAPGVGVAPGVGVAPGVGLAPGVGVAPGVGVAPGVGVAPGIGPGGVAAAAKSAAKVAAKAQLRAAAGLGAGIPGLGVGVGVPGLGVGAGVPGLGVGAGVPGFGAVPGALAAAKAAKYGAAVPGVLGGLGALGGVGIPGGVVGAGPAAAAAAAKAAAKAAQFGLVGAAGLGGLGVGGLGVPGVGGLGGIPPAAAAKAAKYGAAGLGGVLGGAGQFPLGGVAARPGFGLSPIFPGGACLGKACGRKRK
MSC adhesion to tropoelastin (MSCs [1]): 20.0±2.1% | chemotactic response of MSCs (MSCs [2]): dose-dependent chemotactic response | effect on chondrogenic differentiation (MSCs [3]; TE added during the induction stage): inhibited chondrogenic differentiation | pro-chondrogenic effects versus timing of exposure during expansion (MSCs [3]; TE days 2-5, 3-6 or 4-7 of 7-day proliferation period): observed only when tropoelastin was present in the early stages of expansion | concentration during induction stage that significantly inhibited chondrogenic differentiation (MSCs [3]; TE present during induction): ≥ 2 µg/mL | glycosaminoglycan production (MSCs [3]; expanded in 20 μg/ml TE, induced in the absence of TE): highest extent of glycosaminoglycan production | glycosaminoglycan levels compared to cells expanded without TE (MSCs [3]; expanded in presence of TE, TE not present during differentiation): increased glycosaminoglycan levels | increased chondrogenesis compared to cells exposed from days 4-7 (MSCs [3]; exposed days 2-5 of expansion period): 71% | improved chondrogenesis (MSCs [3]; tropoelastin addition during MSC expansion): 134% | decreased MSC chondrogenesis (MSCs [3]; cells expanded with tropoelastin): 80% | decreased MSC chondrogenesis (MSCs [3]; cells expanded without tropoelastin): 63% | differentiation capacity after expansion (MSCs [4]): exhibited the capacity for multi-lineage differentiation
